Assay results: patent US20220064329

Biological target: mAb0077(OA)
Sequence (chain, as listed by the source, chain 1 of 3): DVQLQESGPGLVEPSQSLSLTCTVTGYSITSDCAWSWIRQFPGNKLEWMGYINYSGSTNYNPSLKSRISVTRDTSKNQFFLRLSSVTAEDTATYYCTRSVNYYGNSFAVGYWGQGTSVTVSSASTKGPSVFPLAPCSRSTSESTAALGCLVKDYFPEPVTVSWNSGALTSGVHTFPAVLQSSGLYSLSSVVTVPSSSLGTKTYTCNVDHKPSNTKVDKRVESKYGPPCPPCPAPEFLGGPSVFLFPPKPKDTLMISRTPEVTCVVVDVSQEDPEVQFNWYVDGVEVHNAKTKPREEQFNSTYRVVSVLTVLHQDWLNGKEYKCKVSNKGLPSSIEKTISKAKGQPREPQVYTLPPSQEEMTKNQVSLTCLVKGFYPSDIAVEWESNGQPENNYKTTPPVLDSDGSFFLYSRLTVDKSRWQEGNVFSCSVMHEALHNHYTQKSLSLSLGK
Sequence (chain, as listed by the source, chain 2 of 3): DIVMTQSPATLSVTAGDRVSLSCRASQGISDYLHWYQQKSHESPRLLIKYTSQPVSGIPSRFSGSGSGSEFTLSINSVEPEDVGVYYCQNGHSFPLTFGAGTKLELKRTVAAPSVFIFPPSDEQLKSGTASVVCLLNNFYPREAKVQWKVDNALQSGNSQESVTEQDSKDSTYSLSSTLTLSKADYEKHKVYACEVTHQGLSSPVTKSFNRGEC
Sequence (chain, as listed by the source, chain 3 of 3): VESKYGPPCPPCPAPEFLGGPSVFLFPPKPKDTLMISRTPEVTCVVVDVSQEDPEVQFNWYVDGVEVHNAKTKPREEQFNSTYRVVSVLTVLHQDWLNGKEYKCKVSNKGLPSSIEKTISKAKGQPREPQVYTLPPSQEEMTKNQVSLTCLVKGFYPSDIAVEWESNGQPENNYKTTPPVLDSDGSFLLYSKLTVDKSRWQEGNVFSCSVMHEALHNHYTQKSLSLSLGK

B1: recombinant human activated Factor VII (FVIIa) (protein)
chain 1: ANAFLEELRPGSLERECKEEQCSFEEAREIFKDAERTKLFWISYSDGDQCASSPCQNGGSCKDQLQSYICFCLPAFEGRNCETHKDDQLICVNENGGCEQYCSDHTGTKRSCRCHEGYSLLADGVSCTPTVEYPCGKIPILEKRNASKPQGR
chain 2: IVGGKVCPKGECPWQVLLLVNGAQLCGGTLINTIWVVSAAHCFDKIKNWRNLIAVLGEHDLSEHDGDEQSRRVAQVIIPSTYVPGTTNHDIALLRLHQPVVLTDHVVPLCLPERTFSERTLAFVRFSLVSGWGQLLDRGATALELMVLNVPRLMTQDCLQQSRKVGDSPNITEYMFCAGYSDGSKDSCKGDSGGPHATHYRGTWYLTGIVSWGQGCATVGHFGVYTRVSQYIEWLQKLMRSEPRPGVLLRAPFP
In the case of B1, the Km of FX activation by FVIIa/PS:PC with 200 nM antibody is reported as 0.089 µM, the Km of FX activation by TF-FVIIa with 200 nM antibody is reported as 0.0039 µM and the kcat of FX activation by FVIIa/PS:PC with 200 nM antibody is reported as 0.00026 s⁻¹.
